B1: ZmABI4 upstream element (-175 to -158) (dsDNA)
DNA 1: TTTGACCACCGCCCCTCT
DNA 2: AGAGGGGCGGTGGTCAAA
B2: Adh1 promoter element (-246 to -229) (dsDNA)
DNA 1: CGCCGCCACCGCTTGGCG
DNA 2: CGCCAAGCGGTGGCGGCG

Assays:
[1] = biological target: T1, ZmABI4 (maize ABI4, AP2-domain transcription factor) (Zea mays); experiment: EMSA
[2] = biological target: T1, ZmABI4 (maize ABI4, AP2-domain …); experiment: EMSA; described as high affinity

T1 sequence (chain, as listed by the source): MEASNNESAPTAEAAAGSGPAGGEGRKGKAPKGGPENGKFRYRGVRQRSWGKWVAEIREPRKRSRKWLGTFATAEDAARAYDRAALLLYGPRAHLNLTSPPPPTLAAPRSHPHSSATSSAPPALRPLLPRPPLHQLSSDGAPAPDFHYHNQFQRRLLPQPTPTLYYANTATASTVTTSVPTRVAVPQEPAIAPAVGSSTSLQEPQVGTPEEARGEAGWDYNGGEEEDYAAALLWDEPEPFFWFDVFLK

| Binder | binding result [1] | binding result [2] |
| --- | --- | --- |
| B1 | binds | – |
| B2 | – | binds |

Source: US20030140381, “Genes and regulatory DNA sequences associated with stress-related gene expression in plants and methods of using the same” (Pioneer Hi-Bred International, Inc., published 2003)
